Measured values as given in article PMC2630774 (FEBS letters, 2008).

T1: AhR (aryl hydrocarbon receptor), baculovirus expressed 6His fusion (human, UniProt P35869 11-848)
T1 sequence (looked up): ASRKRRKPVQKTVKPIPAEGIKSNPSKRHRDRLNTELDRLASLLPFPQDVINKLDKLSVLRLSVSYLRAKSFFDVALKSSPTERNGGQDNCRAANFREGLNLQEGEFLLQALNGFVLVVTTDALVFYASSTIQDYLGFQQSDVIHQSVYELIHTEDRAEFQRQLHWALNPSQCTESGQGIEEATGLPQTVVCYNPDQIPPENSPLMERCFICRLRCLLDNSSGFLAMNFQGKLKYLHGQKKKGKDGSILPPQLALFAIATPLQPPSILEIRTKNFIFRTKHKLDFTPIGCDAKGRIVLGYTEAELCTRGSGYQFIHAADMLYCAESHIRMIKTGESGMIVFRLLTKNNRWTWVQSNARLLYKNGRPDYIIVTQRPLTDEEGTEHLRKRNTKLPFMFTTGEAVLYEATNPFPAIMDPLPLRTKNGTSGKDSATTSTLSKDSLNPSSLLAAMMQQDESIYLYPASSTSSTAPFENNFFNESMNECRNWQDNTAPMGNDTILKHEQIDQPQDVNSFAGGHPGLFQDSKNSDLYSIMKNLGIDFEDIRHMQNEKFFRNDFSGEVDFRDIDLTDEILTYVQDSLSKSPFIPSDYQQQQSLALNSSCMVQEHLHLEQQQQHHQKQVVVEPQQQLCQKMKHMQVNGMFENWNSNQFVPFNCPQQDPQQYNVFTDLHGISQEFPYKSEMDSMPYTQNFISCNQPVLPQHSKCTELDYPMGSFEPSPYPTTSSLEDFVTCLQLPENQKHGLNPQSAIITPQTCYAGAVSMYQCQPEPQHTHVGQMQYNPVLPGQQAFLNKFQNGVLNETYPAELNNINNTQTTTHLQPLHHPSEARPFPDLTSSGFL

B1: 32P-CΔ553 (AhR deletion construct with C-terminal 553 amino acids deleted, thioredoxin released, 32P-labelled) (domain or fragment, human, UniProt P35869 1-295, looked up)
chain: MNSSSANITYASRKRRKPVQKTVKPIPAEGIKSNPSKRHRDRLNTELDRLASLLPFPQDVINKLDKLSVLRLSVSYLRAKSFFDVALKSSPTERNGGQDNCRAANFREGLNLQEGEFLLQALNGFVLVVTTDALVFYASSTIQDYLGFQQSDVIHQSVYELIHTEDRAEFQRQLHWALNPSQCTESGQGIEEATGLPQTVVCYNPDQIPPENSPLMERCFICRLRCLLDNSSGFLAMNFQGKLKYLHGQKKKGKDGSILPPQLALFAIATPLQPPSILEIRTKNFIFRTKHKLDF
modifications: 32P-phosphate (HMK phosphorylation using 32P-gamma ATP; residue not stated)
B2: unlabelled CΔ553 (AhR deletion construct with C-terminal 553 amino acids deleted, without thioredoxin fusion) (domain or fragment, human, UniProt P35869 1-295, looked up)
chain: B1 chain
B3: TH-CΔ553 (thioredoxin fusion of CΔ553, a deletion construct of human AhR) (domain or fragment, UniProt P35869 1-295, looked up)
chain: B1 chain
B4: Arnt (AhR nuclear translocator), baculovirus expressed 6His fusion (natural protein)
chain: not shown

What was measured:
[1] = molecular target: B4; test: co-IP
[2] = molecular target: B4; test: native gel or EMSA
[3] = molecular target: T1, AhR (aryl hydrocarbon receptor), …; test: native gel or EMSA

Binder | binding result [2] | also measured
B1 | – | binding result [1]: binds
B2 | binds | –
B3 | binds | –
B4 | – | binding result [3]: binds
